{"source": "patent US20220023333A1", "about": "“METHOD FOR INCREASING CANCER PATIENT'S HAEMOGLOBIN LEVEL” (priority 2019, published 2022)", "assay": "Blood haemoglobin level in cancer patients (case examples 1-9)", "assay_type": "in vivo, human", "excerpt": "[…] Diagnosis: progressive diffuse-nodular multiple myeloma of the stage IIIB. Myelogenic nephropathy, stage III CKD, terminal stage. Chronic programmed dialysis. The initial level of haemoglobin was 72 g/l. The receiving of EPO 20000 IU and iron preparations was prescribed for a month, as a result of which the level of haemoglobin increased to 84 g/l. However, the patient's condition worsened, and there were diagnosed acute transmural myocardial infarction and weight loss in the patient. The patient was prescribed the administration of 30 ml of the sterile pyrogen-free aqueous solution of the poloxamer comprising 13.3 wt % poloxamer-188 (Emuxol-268 of Grade “A”) and water for injection as the remaining part for 30 days. The level of haemoglobin was 116 g/l. Then, 30 ml of the said poloxamer solution was administered to the patient on a daily basis during 9 courses of chemotherapy (cyclophosphan and boramilane), while EPO and iron preparations were no longer prescribed. The level of haemoglobin was maintained in the range of 116-125 g/l.\n[…] Diagnosis: locally advanced or metastatic bladder cancer of the 4t^h stage with lumbar vertebral metastases. The initial level of haemoglobin was 129 g/l.\nImmunotherapy 1: the patient underwent a course of the therapy with the nivolumab preparation (Opdivo) for 4 months. […]"}
{"substance": "nivolumab", "values": [{"measurement": "level of haemoglobin after therapy", "setting": "Example 2, Patient A, bladder cancer 4th stage, nivolumab (Opdivo) for 4 months with regular donated red blood cell transfusion, initial level 129 g/l", "result": 123000, "unit": "µg/mL"}, {"measurement": "level of haemoglobin after 1 course", "setting": "Example 5, Patient D, right kidney tumor with metastases, nivolumab (Opdivo) immunotherapy, 1 course, initial level 148 g/l", "result": 104000, "unit": "µg/mL"}]}
